Data published in patent US20190119715.

Experiments:
[1] = molecular target: T1, α-fructosyl hexapeptide (α-fructosyl-valyl-histidyl-leucyl-threonyl-proryl-glutamic acid) (not fully specified)
T1 chain: VHLTPE

hemoglobin A1c (HbA1c), sequence (chain, as listed by the source, chain 1 of 2): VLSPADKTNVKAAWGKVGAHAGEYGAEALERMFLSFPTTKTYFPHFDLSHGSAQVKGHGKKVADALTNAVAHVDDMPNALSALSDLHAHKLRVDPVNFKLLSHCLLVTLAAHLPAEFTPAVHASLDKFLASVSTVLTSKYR
hemoglobin A1c (HbA1c), sequence (chain, as listed by the source, chain 2 of 2): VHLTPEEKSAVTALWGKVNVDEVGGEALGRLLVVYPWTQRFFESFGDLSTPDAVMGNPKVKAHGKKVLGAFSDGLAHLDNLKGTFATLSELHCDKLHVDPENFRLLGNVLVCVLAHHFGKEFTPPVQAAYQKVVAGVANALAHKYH

B1: CFP-H38-dh2 (CFP-H37 with R64G, F269L) (protein)
chain: MTSNRADTRVIVVGGGGTIGSSTALHLVRSGYAPANITVLDTFEIPSAQSAGHDLNKIMGIDHGNKVNLQMSLEARQMWKEDELFQPFFHNTGRMDCEHTPKGIEKLKKLYQKLHDAGAGLEKTHAWLDNEDEILSKMPLLQRDQIQGWKAIWSQDGGWLAAAKAINAIGQFLKERGVKFGFGGAGSFKQPLFDDEGTTCIGVETADGTKYYADKVVLAAGAWSPTLVDLEDQCCSKAWVYAHIQLTPEEAAEYKGVPVVYNGEFGFFLEPDEFGVIKVCDEFPGFSRFKEHQPYGAPSPKRISVPRSHAKHPTDTYPDASEVSIKKAIATFLPRFQDKELFNRALCWCTDTADSTLLMCEHPKWKNFILATGDSGHSFKILPNVGKYVVELIEGRLPEEMAYQWRWRPGGDALKSRRAAPPKDLADMPGWKHDPKL
- Dehydrogenase activity (%) with 1 mM αF6P as substrate, relative to oxidase activity of CFP-H38 = 100 [1]: 8.23%
- OX/DH (%) relative to CFP-H38 = 100 [1]: 30.7%
- OX/DH (ratio of oxidase to dehydrogenase activity, αF6P as substrate) [1]: 3.43
- Oxidase activity (%) with 1 mM αF6P as substrate, relative to oxidase activity of CFP-H38 = 100 [1]: 28.3%

B2: CFP-H40 (CFP-T7-H37-R64G/L110Y/H99S), modified amadoriase derived from Coniochaeta sp. (protein)
chain: MTSNRADTRVIVVGGGGTIGSSTALHLVRSGYAPANITVLDTFEIPSAQSAGHDLNKIMGIDHGNKVNLQMSLEARQMWKEDELFQPFFHNTGRMDCESTPKGIEKLKKYYQKLHDAGAGLEKTHAWLDNEDEILSKMPLLQRDQIQGWKAIWSQDGGWLAAAKAINAIGQFLKERGVKFGFGGAGSFKQPLFDDEGTTCIGVETADGTKYYADKVVLAAGAWSPTLVDLEDQCCSKAWVYAHIQLTPEEAAEYKGVPVVYNGEFGFFFEPDEFGVIKVCDEFPGFSRFKEHQPYGAPSPKRISVPRSHAKHPTDTYPDASEVSIKKAIATFLPRFQDKELFNRALCWCTDTADSTLLMCEHPKWKNFILATGDSGHSFKILPNVGKYVVELIEGRLPEEMAYQWRWRPGGDALKSRRAAPPKDLADMPGWKHDPKL
- Dehydrogenase activity (%) with 1 mM αF6P as substrate, relative to oxidase activity of CFP-H40 = 100 [1]: 16%
- OX/DH (%) relative to CFP-H40 = 100 [1]: 100%
- OX/DH (ratio of oxidase to dehydrogenase activity, αF6P as substrate) [1]: 6.2
- Oxidase activity (%) with 1 mM αF6P as substrate, relative to oxidase activity of CFP-H40 = 100 [1]: 100%

B3: CFP-H40-dh2 (CFP-H37 with R64G, H99S, L110Y, F269L) (protein)
chain: MTSNRADTRVIVVGGGGTIGSSTALHLVRSGYAPANITVLDTFEIPSAQSAGHDLNKIMGIDHGNKVNLQMSLEARQMWKEDELFQPFFHNTGRMDCESTPKGIEKLKKYYQKLHDAGAGLEKTHAWLDNEDEILSKMPLLQRDQIQGWKAIWSQDGGWLAAAKAINAIGQFLKERGVKFGFGGAGSFKQPLFDDEGTTCIGVETADGTKYYADKVVLAAGAWSPTLVDLEDQCCSKAWVYAHIQLTPEEAAEYKGVPVVYNGEFGFFLEPDEFGVIKVCDEFPGFSRFKEHQPYGAPSPKRISVPRSHAKHPTDTYPDASEVSIKKAIATFLPRFQDKELFNRALCWCTDTADSTLLMCEHPKWKNFILATGDSGHSFKILPNVGKYVVELIEGRLPEEMAYQWRWRPGGDALKSRRAAPPKDLADMPGWKHDPKL
- Dehydrogenase activity (%) with 1 mM αF6P as substrate, relative to oxidase activity of CFP-H40 = 100 [1]: 5.4%
- OX/DH (%) relative to CFP-H40 = 100 [1]: 23%
- OX/DH (ratio of oxidase to dehydrogenase activity, αF6P as substrate) [1]: 1.4
- Oxidase activity (%) with 1 mM αF6P as substrate, relative to oxidase activity of CFP-H40 = 100 [1]: 7.5%

B4: CFP-H40-dh3 (CFP-H37 with R64G, H99S, L110Y, C280Q) (protein)
chain: MTSNRADTRVIVVGGGGTIGSSTALHLVRSGYAPANITVLDTFEIPSAQSAGHDLNKIMGIDHGNKVNLQMSLEARQMWKEDELFQPFFHNTGRMDCESTPKGIEKLKKYYQKLHDAGAGLEKTHAWLDNEDEILSKMPLLQRDQIQGWKAIWSQDGGWLAAAKAINAIGQFLKERGVKFGFGGAGSFKQPLFDDEGTTCIGVETADGTKYYADKVVLAAGAWSPTLVDLEDQCCSKAWVYAHIQLTPEEAAEYKGVPVVYNGEFGFFFEPDEFGVIKVQDEFPGFSRFKEHQPYGAPSPKRISVPRSHAKHPTDTYPDASEVSIKKAIATFLPRFQDKELFNRALCWCTDTADSTLLMCEHPKWKNFILATGDSGHSFKILPNVGKYVVELIEGRLPEEMAYQWRWRPGGDALKSRRAAPPKDLADMPGWKHDPKL
- Dehydrogenase activity (%) with 1 mM αF6P as substrate, relative to oxidase activity of CFP-H40 = 100 [1]: 29%
- OX/DH (%) relative to CFP-H40 = 100 [1]: 7.3%
- OX/DH (ratio of oxidase to dehydrogenase activity, αF6P as substrate) [1]: 0.45
- Oxidase activity (%) with 1 mM αF6P as substrate, relative to oxidase activity of CFP-H40 = 100 [1]: 13%

B5: CFP-H38-dh1 (CFP-H37 with R64G, F269M) (protein)
chain: MTSNRADTRVIVVGGGGTIGSSTALHLVRSGYAPANITVLDTFEIPSAQSAGHDLNKIMGIDHGNKVNLQMSLEARQMWKEDELFQPFFHNTGRMDCEHTPKGIEKLKKLYQKLHDAGAGLEKTHAWLDNEDEILSKMPLLQRDQIQGWKAIWSQDGGWLAAAKAINAIGQFLKERGVKFGFGGAGSFKQPLFDDEGTTCIGVETADGTKYYADKVVLAAGAWSPTLVDLEDQCCSKAWVYAHIQLTPEEAAEYKGVPVVYNGEFGFFMEPDEFGVIKVCDEFPGFSRFKEHQPYGAPSPKRISVPRSHAKHPTDTYPDASEVSIKKAIATFLPRFQDKELFNRALCWCTDTADSTLLMCEHPKWKNFILATGDSGHSFKILPNVGKYVVELIEGRLPEEMAYQWRWRPGGDALKSRRAAPPKDLADMPGWKHDPKL
- Dehydrogenase activity (%) with 1 mM αF6P as substrate, relative to oxidase activity of CFP-H38 = 100 [1]: 24%
- OX/DH (%) relative to CFP-H38 = 100 [1]: 20%
- OX/DH (ratio of oxidase to dehydrogenase activity, αF6P as substrate) [1]: 2.23
- Oxidase activity (%) with 1 mM αF6P as substrate, relative to oxidase activity of CFP-H38 = 100 [1]: 53.4%

B6: CFP-H38 (CFP-T7-H37-R64G), modified amadoriase derived from Coniochaeta sp. (protein)
chain: MTSNRADTRVIVVGGGGTIGSSTALHLVRSGYAPANITVLDTFEIPSAQSAGHDLNKIMGIDHGNKVNLQMSLEARQMWKEDELFQPFFHNTGRMDCEHTPKGIEKLKKLYQKLHDAGAGLEKTHAWLDNEDEILSKMPLLQRDQIQGWKAIWSQDGGWLAAAKAINAIGQFLKERGVKFGFGGAGSFKQPLFDDEGTTCIGVETADGTKYYADKVVLAAGAWSPTLVDLEDQCCSKAWVYAHIQLTPEEAAEYKGVPVVYNGEFGFFFEPDEFGVIKVCDEFPGFSRFKEHQPYGAPSPKRISVPRSHAKHPTDTYPDASEVSIKKAIATFLPRFQDKELFNRALCWCTDTADSTLLMCEHPKWKNFILATGDSGHSFKILPNVGKYVVELIEGRLPEEMAYQWRWRPGGDALKSRRAAPPKDLADMPGWKHDPKL
- Dehydrogenase activity (%) with 1 mM αF6P as substrate, relative to oxidase activity of CFP-H38 = 100 [1]: 8.94%
- OX/DH (%) relative to CFP-H38 = 100 [1]: 100%
- OX/DH (ratio of oxidase to dehydrogenase activity, αF6P as substrate) [1]: 11.2
- Oxidase activity (%) with 1 mM αF6P as substrate, relative to oxidase activity of CFP-H38 = 100 [1]: 100%

B7: CFP-H40-dh4 (CFP-H37 with R64G, H99S, L110Y, F269M, C280Q) (protein)
chain: MTSNRADTRVIVVGGGGTIGSSTALHLVRSGYAPANITVLDTFEIPSAQSAGHDLNKIMGIDHGNKVNLQMSLEARQMWKEDELFQPFFHNTGRMDCESTPKGIEKLKKYYQKLHDAGAGLEKTHAWLDNEDEILSKMPLLQRDQIQGWKAIWSQDGGWLAAAKAINAIGQFLKERGVKFGFGGAGSFKQPLFDDEGTTCIGVETADGTKYYADKVVLAAGAWSPTLVDLEDQCCSKAWVYAHIQLTPEEAAEYKGVPVVYNGEFGFFMEPDEFGVIKVQDEFPGFSRFKEHQPYGAPSPKRISVPRSHAKHPTDTYPDASEVSIKKAIATFLPRFQDKELFNRALCWCTDTADSTLLMCEHPKWKNFILATGDSGHSFKILPNVGKYVVELIEGRLPEEMAYQWRWRPGGDALKSRRAAPPKDLADMPGWKHDPKL
- Dehydrogenase activity (%) with 1 mM αF6P as substrate, relative to oxidase activity of CFP-H40 = 100 [1]: 5.4%
- OX/DH (%) relative to CFP-H40 = 100 [1]: 5.7%
- OX/DH (ratio of oxidase to dehydrogenase activity, αF6P as substrate) [1]: 0.35
- Oxidase activity (%) with 1 mM αF6P as substrate, relative to oxidase activity of CFP-H40 = 100 [1]: 1.9%

B8: CFP-H40-dh1 (CFP-H37 with R64G, H99S, L110Y, F269M) (protein)
chain: MTSNRADTRVIVVGGGGTIGSSTALHLVRSGYAPANITVLDTFEIPSAQSAGHDLNKIMGIDHGNKVNLQMSLEARQMWKEDELFQPFFHNTGRMDCESTPKGIEKLKKYYQKLHDAGAGLEKTHAWLDNEDEILSKMPLLQRDQIQGWKAIWSQDGGWLAAAKAINAIGQFLKERGVKFGFGGAGSFKQPLFDDEGTTCIGVETADGTKYYADKVVLAAGAWSPTLVDLEDQCCSKAWVYAHIQLTPEEAAEYKGVPVVYNGEFGFFMEPDEFGVIKVCDEFPGFSRFKEHQPYGAPSPKRISVPRSHAKHPTDTYPDASEVSIKKAIATFLPRFQDKELFNRALCWCTDTADSTLLMCEHPKWKNFILATGDSGHSFKILPNVGKYVVELIEGRLPEEMAYQWRWRPGGDALKSRRAAPPKDLADMPGWKHDPKL
- Dehydrogenase activity (%) with 1 mM αF6P as substrate, relative to oxidase activity of CFP-H40 = 100 [1]: 16%
- OX/DH (%) relative to CFP-H40 = 100 [1]: 21%
- OX/DH (ratio of oxidase to dehydrogenase activity, αF6P as substrate) [1]: 1.3
- Oxidase activity (%) with 1 mM αF6P as substrate, relative to oxidase activity of CFP-H40 = 100 [1]: 21%

B9: CFP-H38-dh3 (CFP-H37 with R64G, C280Q) (protein)
chain: MTSNRADTRVIVVGGGGTIGSSTALHLVRSGYAPANITVLDTFEIPSAQSAGHDLNKIMGIDHGNKVNLQMSLEARQMWKEDELFQPFFHNTGRMDCEHTPKGIEKLKKLYQKLHDAGAGLEKTHAWLDNEDEILSKMPLLQRDQIQGWKAIWSQDGGWLAAAKAINAIGQFLKERGVKFGFGGAGSFKQPLFDDEGTTCIGVETADGTKYYADKVVLAAGAWSPTLVDLEDQCCSKAWVYAHIQLTPEEAAEYKGVPVVYNGEFGFFFEPDEFGVIKVQDEFPGFSRFKEHQPYGAPSPKRISVPRSHAKHPTDTYPDASEVSIKKAIATFLPRFQDKELFNRALCWCTDTADSTLLMCEHPKWKNFILATGDSGHSFKILPNVGKYVVELIEGRLPEEMAYQWRWRPGGDALKSRRAAPPKDLADMPGWKHDPKL
- current response on a screen-printed carbon electrode at 83, 166, 249 and 332 µg/ml HbA1c (hemoglobin A1c (HbA1c)): HbA1c was quantified with high accuracy using CFP-H38-dh3
- dehydrogenase activity on HbA1c (absorbance at 433 nm, WST-3) (hemoglobin A1c (HbA1c)): a significant increase was observed in the absorbance, compared with the control. That is, it was confirmed that CFP-H38-dh3 exhibited dehydrogenase activity on HbA1c
- Dehydrogenase activity (%) with 1 mM αF6P as substrate, relative to oxidase activity of CFP-H38 = 100 [1]: 3.22%
- OX/DH (%) relative to CFP-H38 = 100 [1]: 2.7%
- OX/DH (ratio of oxidase to dehydrogenase activity, αF6P as substrate) [1]: 0.3
- Oxidase activity (%) with 1 mM αF6P as substrate, relative to oxidase activity of CFP-H38 = 100 [1]: 1%
- dehydrogenase activity of a 38.4 mg/ml CFP-H38-dh3 solution [1]: 38.4 mg/ml (17.8 U/ml) CFP-H38-dh3 solution
- dehydrogenase activity of an 8.8 mg/ml CFP-H38-dh3 solution [1]: 8.8 mg/ml (4.1 U/ml) CFP-H38-dh3 solution
